Assay results as given in article PMC6073210, “Adducin‐1 is essential for spindle pole integrity through its interaction with TPX2” (EMBO Reports, 2018).

B1: FLAG-ADD1 WT (adducin-1), transiently expressed in HEK293 cells [not stated] / GST-TPX2 aa 120–370 fusion protein [human] (parent)
chain 1: MNGDSRAAVVTSPPPTTAPHKERYFDRVDENNPEYLRERNMAPDLRQDFNMMEQKKRVSMILQSPAFCEELESMIQEQFKKGKNPTGLLALQQIADFMTTNVPNVYPAAPQGGMAALNMSLGMVTPVNDLRGSDSIAYDKGEKLLRCKLAAFYRLADLFGWSQLIYNHITTRVNSEQEHFLIVPFGLLYSEVTASSLVKINLQGDIVDRGSTNLGVNQAGFTLHSAIYAARPDVKCVVHIHTPAGAAVSAMKCGLLPISPEALSLGEVAYHDYHGILVDEEEKVLIQKNLGPKSKVLILRNHGLVSVGESVEEAFYYIHNLVVACEIQVRTLASAGGPDNLVLLNPEKYKAKSRSPGSPVGEGTGSPPKWQIGEQEFEALMRMLDNLGYRTGYPYRYPALREKSKKYSDVEVPASVTGYSFASDGDSGTCSPLRHSFQKQQREKTRWLNSGRGDEASEEGQNGSSPKSKTKWTKEDGHRTSTSAVPNLFVPLNTNPKEVQEMRNKIREQNLQDIKTAGPQSQVLCGVVMDRSLVQGELVTASKAIIEKEYQPHVIVSTTGPNPFTTLTDRELEEYRREVERKQKGSEENLDEAREQKEKSPPDQPAVPHPPPSTPIKLEEDLVPEPTTGDDSDAATFKPTLPDLSPDEPSEALGFPMLEKEEEAHRPPSPTEAPTEASPEPAPDPAPVAEEAAPSAVEEGAAADPGSDGSPGKSPSKKKKKFRTPSFLKKSKKKSDS
chain 2: RSLRLSAQKDLEQKEKHHVKMKAKRCATPVIIDEILPSKKMKVSNNKKKPEEEGSAHQDTAEKNASSPEKAKGRHTVPCMPPAKQKFLKSTEEQELEKSMKMQQEVVEMRKKNEEFKKLALAGIGQPVKKSVSQVTKSVDFHFRTDERIKQHPKNQEEYKEVNFTSELRKHPSSPARVTKGCTIVKPFNLSQGKKRTFDETVSTYVPLAQQVEDFHKRTPNRYHLRSKKDDINLLPSKSSVTKICRDPQTP

Variants of: B1
Assay: GST pull-down (immunoblot quantification)
Conditions: with GST-TPX2 aa 120–370 fusion protein [human]; lysates from HEK293 cells; five independent experiments; means ± s.d.; parent: 100; read off a plot

**Q.** With chain 1 S726A as the variant, how does the percent of parent read?
**A.** 40%
